US20140289906A1, “Compositions Having Dicamba Decarboxylase Activity and Methods of Use” (priority 2013, published 2014)

How the values were obtained:
[1] = 14C assay: 14CO2 capture from [14C]-carboxyl-labeled dicamba with purified protein; assay type: biochemical
[2] = GC/MS detection of 2,5-dichloro anisole (2,5-DCA), toluene trapping or head-space; assay type: biochemical; conditions: purified protein, dicamba, toluene capturing
Description: Alternatively, dicamba decarboxylase activity can be monitored by measuring decarboxylation products other than CO2 using product detection methods. The decarboxylation product of dicamba, 2,5-dichloro anisole or 2,5-DCA (FIG. 1C), is a volatile compound with a flash point of 21° C. To capture this volatile compound for detection, 140 ul of toluene solution is added on top of 1 ml reaction mixture to form a trapping layer in a 1.5 ml eppendorf tube. […] The reaction is kept still at room temperature overnight before being vortex mixed and centrifuged at 14,000 rpm for 15 minutes. The top toluene phase is carefully removed using a micropipette and transferred into a 12×32 mm polypropylene vial (Vial 11 mm) from MicroLiter Analytical Supplies, Inc. (catalog number 11-5300-100). The vial is sealed with Crimp seal (11 mm with FEP/Nat Rubber) from MicroLiter Analytical Supplies, Inc. (catalog number 11-0020A) using a E-Z Crimper™ 11 mm from Wheaton Inc. 1 ul of the toluene mixture is taken from the sealed vials and injected in splitless mode into a GC/MS system for sample analysis (Agilent GC/MS system with a 6890A GC, a 5973N MSD and a CTC CombiPAL auto-sampler or with a 7890A GC, a 5975C MSD and an Agilent GC Sampler 80 auto-sampler). The GC parameters are: Agilent DB-5MS column (30 m length, 0.25 mm diameter, 0.25 um film) or equivalent; The GC inlet temperature, 250° C.; Carry gas, helium in constant flow mode (1.2 mL/min); The GC oven temperature program, initial temperature at 70° C. for 1 min, ramping to 200° C. at 15° C./min, and then ramping to 250° C. at 30° C./min. MS data acquisition is done in SIM (selected ion monitoring) mode, monitoring the positive ion at M/Z 176 for the molecular ion of […]. The solvent delay for MS acquisition is set at 4 min. Another method for detection of 2,5-DCA is a head-space GC/MS method. Briefly, reaction mixtures in 500 ul reaction volume are prepared in 1.5 ml 12×32 mm glass vials (Microliter Analytical Supplies, Cat#11-1200) for head space analysis. Glass vials are sealed with magnetic cap from MicroLiter Analytical Supplies, Inc. (catalog number 11-0030AT) using a E-Z Crimper™ 11 mm from Wheaton Industries Inc. The reaction is carried out at room temperature for various amount of time and stopped by heating at 95° C. for 5 min. The reaction vial is transferred to a agitator for incubation at 80° C. for 5 min at 500 rpm. With a syringe preheated at 80° C., 1000 uL of head space is injected with sample fill speed at 100 uL/sec. GC/MS parameters for headspace analysis are the same as for liquid sample analysis.

[3] = LC-MS/MS detection of 4-chloro-3-methoxy phenol; assay type: biochemical; conditions: purified protein, dicamba
Description: The decarboxylated and chloro hydrolyzed product, 4-chloro-3-methoxy phenol (FIG. 1D), is measured using a LC-MS/MS analytical procedure. […] 10 ul is removed from the reaction mixture and mixed with 90 ul pre-chilled methanol followed by centrifugation at 14,000 rpm for 15 min at 4° C. 10 ul of the supernatant is then transferred into 170 ul ddH2O to achieve 5% methanol solution for injection. 50 ul of the prepared sample is injected into a 4000 Q Trap LC-MS/MS system for sample analysis. LC-MS/MS parameters are: Mobile Phase A, 2 mM ammonium acetate in water; Mobile Phase B, 2 mM ammonium acetate in methanol; Column, Aquasil, 100×2.1 mm, 3 μm, C18 column; Flow Rate, 0.6 ml/min. The MS/MS fragment 157/142 which is common to 4-chloro-3-methoxy phenol, 2-chloro-5-methoxy phenol, and 3-chloro-5-methoxy phenol is monitored at a retention time of 2.88 min.

[4] = GC/MS detection of 2,5-dichloro phenol (2,5-DCP); kinetic determination; assay type: biochemical; conditions: purified protein, dicamba
Description: The decarboxylated and demethylated product of dicamba, 2,5-dichloro phenol or 2,5-DCP (FIG. 1E) is measured using a GC/MS analytical procedure with either liquid injection after liquid/liquid extraction using toluene as the extraction solvent or gas injection using head space method. The head space sample analysis is carried out on an Agilent GC/MS system with a 6890A GC, a 5973N MSD and a CTC CombiPAL auto-sampler or with a 7890A GC, a 5975C MSD and an Agilent GC Sampler 80 auto-sampler with Phenomenex ZB-MultiResidue-1 column (30 m length, 0.25 mm diameter, 0.25 um film) or equivalent. GC/MS parameters are: GC inlet temperature, 200° C.; Carry gas, helium in constant flow mode (1.2 mL/min); Oven temperature program, 70° C. for 1 min and then ramp to 275° C. at 40° C./min. […] The reaction vial is transferred to a agitator for incubation at 90° C. for 4 min at 500 rpm. With a syringe preheated at 110° C., 1000 uL of head space is injected with sample fill speed at 100 uL/sec. A 2-mm diameter liner is used in sample inlet. The MS data acquisition is done in SIM (selected ion monitoring) mode. The positive ion at M/Z 162 for the molecular ion of 2,-5-DCP is monitored at retention time of 4.06 min. Solvent delay for MS acquisition is set at 3 min. GC/MS parameters for liquid sample analysis are the same as those for head space analysis, except that the volume of liquid injection is 1 uL.

[5] = Dicamba decarboxylation activity of computationally designed protein variants and parents (Tables 4, 5); conditions: for dicamba decarboxylase activity (statement in the description): native proteins and designed variants, assay not specified
[6] = 14C assay: 14CO2 capture from [14C]-carboxyl-labeled dicamba with IPTG-induced recombinant E. coli cells; conditions: for Enzymatic Detection level: dicamba decarboxylation activity

B1: 117 (protein)
chain: MAKKPRIDMHSHFFPRISEQEAAKFDANHAPWLQVSAKGDTGSIMMGKNNFRPVYQALWDPAFRIEEMDAQGVDVQVTCATPVMFGYTWEANKAAQWAERMNDFALEFAAHNPQRIKVLAQVPLQDLDLACKEASRAVAAGHLGIQIGNHLGDKDLDDATLEAFLTHCANEDIPILVHPWDMMGGQRMKKWMLPVLVAAPAEVQLAILSLILSGAFERIPKSLKICFAGGGGSFAFLLGIVDLAWRHRDIVREDCPRPPSEYVDRFFVDSLVFNPGALELLVSVMGEDRVMLGSDYPFPTGEQKIGGLVLSSNLGESAKDKIISGNASKFFNINV
modifications: Dicamba decarboxylase variant clone DC.5.008
CO2 product detected [1]: not detected
2,5-DCA product detected [2]: detected
4-chloro-3-methoxy phenol product detected [3]: not detected
2,5-DCP product detected [4]: not detected
dicamba decarboxylase activity (statement in the description) [5]: have dicamba decarboxylase activity
Enzymatic Detection level [6]: High

B2: 118 (protein)
chain: MAKKPRIDMHSHFFPRISEQEAAKFDANHAPWLQVSAKGDTGSIMMGKNNFQPVYQALWDPAFRIEEMDAQGVDVQVTCATPVMFGYTWEANKAAQWAERMNDFALEFAAHNPQRIKVLAQVPLQDLDLACKEASRAVAAGHLGIQIGNHLGDKDLDDATLEAFLTHCANEDIPILVHGTDMMGGQRMKKWGLPWLVALAAEVQLAILSLILSGAFERIPKSLKICFSHGGGSFAFLLGLVDEAWRHVDIVREDCPRPPSEYVDRFFVDSVGNPGALELLVSVMGEDRVMLGSDYPHTTGEQKIGGLVLSSNLGESAKDKIISGNASKFFNINV
modifications: Dicamba decarboxylase variant clone DC.5.033
CO2 product detected [1]: not detected
2,5-DCA product detected [2]: detected
4-chloro-3-methoxy phenol product detected [3]: not detected
2,5-DCP product detected [4]: not detected
dicamba decarboxylase activity (statement in the description) [5]: have dicamba decarboxylase activity
Enzymatic Detection level [6]: High

B3: 1 (protein, listed as Rhizobium sp.)
chain: MAQGKVALEEHFAIPETLQDSAGFVPGDYWKELQHRLLDIQDTRLKLMDAHGIETMILSLNAPAVQAIPDRRKAIEIARRANDVLAEECAKRPDRFLAFAALPLQDPDAATEELQRCVNDLGFVGALVNGFSQEGDGQTPLYYDLPQYRPFWGEVEKLDVPFYLHPRNPLPQDSRIYDGHPWLLGPTWAFAQETAVHALRLMASGLFDEHPRLNIILGHMGEGLPYMMWRIDHRNAWVKLPPRYPAKRRFMDYFNENFHITTSGNFRTQTLIDAILEIGADRILFSTDWPFENIDHASDWFNATSIAEADRVKIGRTNARRLFKLDGA
CO2 product detected [1]: detected
2,5-DCA product detected [2]: detected
4-chloro-3-methoxy phenol product detected [3]: detected
2,5-DCP product detected [4]: detected
dicamba decarboxylase activity (statement in the description) [5]: native dicamba decarboxylase activity
Percent Activity Improvement Over Parent (%) ([5]; parent (SEQ ID NO: 1 or SEQ ID NO: 41) = 100): 100%
Dicamba Decarboxylase Activity ([6]; IPTG-induced recombinant E. coli cells, 14CO2 from [14C]-carboxyl-labeled dicamba): High
decarboxylation activity of dicamba ([6]; among the 108 sequences tested, recombinant E. coli cell assay): showed decarboxylation activity of dicamba
Enzymatic Detection level [6]: High
